Target: human Hsp60 wild type (human)
Experiment: SEC; Superdex 200 Increase 10/300 GL, 50 mM Tris-HCl (pH 7.8 at 25 °C), 2 mM DTT, 2 mM EDTA, 0.5 mg sample, 0.75 mL/min; size from calibration with molecular weight standards; before and after agitation

stoichiometry N: 14
Substance: human Hsp60 wild type (natural protein)
